According to paper PMC9864249:

What was measured:
[1] = biological target: GST-ZZUD (ZU5-ZU5-UPA-DD spectrin-binding domain of erythrocyte ankyrin, wild type) (human) (UniProt P16157); assay: pull-down; sedimentation assay: GST-ZZUD or GST-ZZUDL1340P adsorbed on Glutathione Sepharose 4B; His(6)GFP–AnkBD 0–2 µM; 50 mM Tris–HCl, 150 mM NaCl, 2 mM DTT, pH 7.5; 30 min, room temperature; eluted with 75 mM GSH, bound GFP read by fluorescence; bare resin subtracted; one site-specific binding fit
[2] = biological target: His(6)GFP–AnkBD (ankyrin-binding domain of erythrocyte β-spectrin, repeats 14–15) (human) (UniProt P11277); assay: BLI; Octet K2; His(6)GFP–AnkBD loaded on Ni2+-NTA biosensor tips; GST-ZZUD or GST-ZZUDL1340P 0–2.5 µM in solution; 30 °C; 50 mM Tris–HCl, 150 mM NaCl, 2 mM DTT, pH 7.5; association 300 s, dissociation 300 s; curves compared by amplitude
Sequence of UniProt P11277 (P11277 whole entry, the tested form may be a part): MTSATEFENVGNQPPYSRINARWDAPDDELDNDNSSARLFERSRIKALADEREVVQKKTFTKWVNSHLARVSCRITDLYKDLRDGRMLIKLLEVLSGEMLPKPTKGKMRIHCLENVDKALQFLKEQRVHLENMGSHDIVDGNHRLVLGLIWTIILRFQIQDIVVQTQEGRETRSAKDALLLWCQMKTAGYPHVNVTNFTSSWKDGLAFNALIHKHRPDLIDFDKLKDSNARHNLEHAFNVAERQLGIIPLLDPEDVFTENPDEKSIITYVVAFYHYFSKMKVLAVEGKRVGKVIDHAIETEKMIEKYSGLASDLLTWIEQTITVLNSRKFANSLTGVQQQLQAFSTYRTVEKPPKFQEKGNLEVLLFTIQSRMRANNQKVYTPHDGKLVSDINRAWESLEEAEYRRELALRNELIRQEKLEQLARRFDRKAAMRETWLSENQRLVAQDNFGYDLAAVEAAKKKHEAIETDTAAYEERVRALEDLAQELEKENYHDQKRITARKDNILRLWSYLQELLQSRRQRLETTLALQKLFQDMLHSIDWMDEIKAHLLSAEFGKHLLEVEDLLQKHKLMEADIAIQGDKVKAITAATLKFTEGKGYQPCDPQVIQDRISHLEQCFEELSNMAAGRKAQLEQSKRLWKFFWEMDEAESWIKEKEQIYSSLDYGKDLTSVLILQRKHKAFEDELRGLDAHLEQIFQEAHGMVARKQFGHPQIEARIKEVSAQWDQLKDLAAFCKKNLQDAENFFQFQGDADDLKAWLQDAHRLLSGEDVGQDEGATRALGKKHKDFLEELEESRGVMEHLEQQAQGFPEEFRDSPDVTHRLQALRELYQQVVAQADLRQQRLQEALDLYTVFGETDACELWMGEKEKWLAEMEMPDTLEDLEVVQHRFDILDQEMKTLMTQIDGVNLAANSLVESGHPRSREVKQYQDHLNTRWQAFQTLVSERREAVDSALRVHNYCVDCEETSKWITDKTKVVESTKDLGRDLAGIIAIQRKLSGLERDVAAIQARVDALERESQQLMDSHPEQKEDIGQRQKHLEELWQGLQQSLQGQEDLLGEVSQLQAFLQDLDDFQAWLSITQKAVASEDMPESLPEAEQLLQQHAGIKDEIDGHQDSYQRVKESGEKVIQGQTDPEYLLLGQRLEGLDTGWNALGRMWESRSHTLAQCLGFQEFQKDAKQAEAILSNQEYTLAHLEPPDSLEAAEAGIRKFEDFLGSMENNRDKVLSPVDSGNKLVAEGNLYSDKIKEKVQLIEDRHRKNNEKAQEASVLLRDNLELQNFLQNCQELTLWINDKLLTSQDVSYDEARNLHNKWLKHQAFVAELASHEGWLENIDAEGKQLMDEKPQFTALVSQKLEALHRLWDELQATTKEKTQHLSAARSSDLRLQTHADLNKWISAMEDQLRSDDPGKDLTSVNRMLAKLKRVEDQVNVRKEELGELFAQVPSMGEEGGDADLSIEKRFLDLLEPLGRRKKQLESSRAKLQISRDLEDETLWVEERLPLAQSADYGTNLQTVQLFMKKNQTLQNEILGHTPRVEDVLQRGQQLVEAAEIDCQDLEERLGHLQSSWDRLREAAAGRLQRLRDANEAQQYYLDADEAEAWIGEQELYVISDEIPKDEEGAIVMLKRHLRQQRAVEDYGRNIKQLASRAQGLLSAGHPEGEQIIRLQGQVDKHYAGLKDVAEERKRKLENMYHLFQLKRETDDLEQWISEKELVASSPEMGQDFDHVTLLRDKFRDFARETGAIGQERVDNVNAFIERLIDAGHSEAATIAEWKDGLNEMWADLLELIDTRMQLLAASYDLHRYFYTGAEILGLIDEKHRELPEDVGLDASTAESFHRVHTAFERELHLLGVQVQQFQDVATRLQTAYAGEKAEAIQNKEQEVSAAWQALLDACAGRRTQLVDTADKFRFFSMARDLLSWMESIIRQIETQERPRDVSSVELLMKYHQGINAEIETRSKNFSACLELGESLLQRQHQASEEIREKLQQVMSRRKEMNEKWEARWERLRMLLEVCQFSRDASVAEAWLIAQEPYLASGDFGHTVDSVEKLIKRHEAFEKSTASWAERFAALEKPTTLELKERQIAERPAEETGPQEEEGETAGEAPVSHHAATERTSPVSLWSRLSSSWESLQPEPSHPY

Molecule	Kd [1]	fold decrease in the binding response compared to the WT [2]
His(6)GFP–AnkBD (ankyrin-binding domain of erythrocyte β-spectrin, repeats 14–15) (from UniProt P11277 1-2137) (domain or fragment)	1040 nM	–
GST-ZZUDL1340P (ZZUD domain of erythrocyte ankyrin with the spherocytosis-related L1340P substitution) (domain or fragment) TGFLVSFMVDARGGSMRGSRHNGLRVVIPPRTCAAPTRITCRLVKPQKLSTPPPLAEEEGLASRIIALGPTGAQFLSPVIVEIPHFASHGRGDRELVVLRSENGSVWKEHRSRYGESYLDQILNGMDEELGSLEELEKKRVCRIITTDFPLYFVIMSRLCQDYDTIGPEGGSLKSKLVPLVQATFPENAVTKRVKLALQAQPVPDELVTKLLGNQATFSPIVTVEPRRRKFHRPIGLRIPLPPSWTDNPRDSGEGDTTSLRLLCSVIGGTDQAQWEDITGTTKLVYANECANFTTNVSARFWLSDCPRTAEAVNFATLLYKELTAVPYMAKFVIFAKMNDPREGRLRCYCMTDDKVDKTLEQHENFVEVARSRDIEVLEGMSLFAELSGNLVPVKKAAQQRSFHFQSFRENRLAMPVKVRDSSREPGGSPSFLRKAMKYEDTQHILCHLNITMPPCAKGSGAEDRRRTPTPLALRYSILSESTPGSLSGTEQAEMKMAVISEHLGLSWAELARELQFSVEDINRIRVENPNSLLEQSVALLNLWVIREGQNANMENLYTALQSIDRGEIVNMLEGSGRQSRN	–	3 fold
